Assay results published in US10428140B2, “Anti-EphA4 antibody” (EISAI R&D MANAGEMENT CO., LTD., priority 2015, dated 2019).

Experiments:
Test in all cases: Selectivity ELISA of humanized antibodies for human Eph receptor
Assay type in all cases: binding
human EphA4 = target: T1, human EphA4 (Homo sapiens, UniProt P54764); conditions: coated protein 1 nM; reference set to 100%
T1 construct: made in house; not restated for the human SEAP-His protein
Summary of the method: (§1)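 Human Eph ECD-SEAP-His fusions, harvested after 5 days of Expi293F expression, are captured on anti-His-coated wells (1 nM final). Bound humanized antibody is detected with HRP anti-IgG and TMB at 450 nm.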

human EphB1 = target: T2, human EphB1 (Homo sapiens, UniProt P54762); conditions: coated protein 1 nM
T2 construct: a protein of the extracellular region of each human Eph receptor fused with the SEAP protein and the His tag; made in house; host or cells: Expi293F cells (culture supernatant)
T2 sequence (P54762 18-540 limits assumed): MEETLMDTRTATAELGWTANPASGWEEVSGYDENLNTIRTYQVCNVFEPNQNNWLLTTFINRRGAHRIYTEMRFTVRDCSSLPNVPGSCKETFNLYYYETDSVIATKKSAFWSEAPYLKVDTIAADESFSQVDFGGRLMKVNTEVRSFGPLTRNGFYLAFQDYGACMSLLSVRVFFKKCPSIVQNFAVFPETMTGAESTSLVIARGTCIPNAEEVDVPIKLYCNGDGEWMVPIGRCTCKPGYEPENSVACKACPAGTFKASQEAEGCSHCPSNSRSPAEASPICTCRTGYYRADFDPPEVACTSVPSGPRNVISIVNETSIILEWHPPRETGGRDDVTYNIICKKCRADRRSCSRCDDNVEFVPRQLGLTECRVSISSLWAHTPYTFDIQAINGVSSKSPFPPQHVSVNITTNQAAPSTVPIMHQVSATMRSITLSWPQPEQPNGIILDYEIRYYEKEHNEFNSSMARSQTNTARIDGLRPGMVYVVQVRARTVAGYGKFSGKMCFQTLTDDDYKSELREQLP
Summary of the method: as §1

human EphB2 = target: T3, human EphB2 (Homo sapiens, UniProt P29323); conditions: coated protein 1 nM
T3 construct: a protein of the extracellular region of each human Eph receptor fused with the SEAP protein and the His tag; made in house; host or cells: Expi293F cells
T3 sequence (P29323 19-543 limits assumed): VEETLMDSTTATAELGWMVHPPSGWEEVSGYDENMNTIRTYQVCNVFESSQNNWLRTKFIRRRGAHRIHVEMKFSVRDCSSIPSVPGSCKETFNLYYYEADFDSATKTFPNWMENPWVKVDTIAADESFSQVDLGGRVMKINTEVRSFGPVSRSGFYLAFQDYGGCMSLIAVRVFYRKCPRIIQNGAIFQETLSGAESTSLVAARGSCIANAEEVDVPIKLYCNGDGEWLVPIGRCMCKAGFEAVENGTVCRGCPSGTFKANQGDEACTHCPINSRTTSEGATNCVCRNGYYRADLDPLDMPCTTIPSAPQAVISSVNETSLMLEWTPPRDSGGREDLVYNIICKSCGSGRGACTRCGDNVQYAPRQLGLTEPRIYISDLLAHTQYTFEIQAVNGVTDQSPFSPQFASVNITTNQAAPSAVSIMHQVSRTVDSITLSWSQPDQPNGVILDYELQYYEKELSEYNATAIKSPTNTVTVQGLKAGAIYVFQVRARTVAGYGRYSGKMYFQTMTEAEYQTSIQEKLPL
Summary of the method: as §1

human EphA1 = target: T4, human EphA1 (Homo sapiens, UniProt P21709); conditions: coated protein 1 nM
T4 construct: a protein of the extracellular region of each human Eph receptor fused with the SEAP protein and the His tag; made in house; host or cells: Expi293F cells (culture supernatant)
T4 sequence (P21709 26-547 limits assumed): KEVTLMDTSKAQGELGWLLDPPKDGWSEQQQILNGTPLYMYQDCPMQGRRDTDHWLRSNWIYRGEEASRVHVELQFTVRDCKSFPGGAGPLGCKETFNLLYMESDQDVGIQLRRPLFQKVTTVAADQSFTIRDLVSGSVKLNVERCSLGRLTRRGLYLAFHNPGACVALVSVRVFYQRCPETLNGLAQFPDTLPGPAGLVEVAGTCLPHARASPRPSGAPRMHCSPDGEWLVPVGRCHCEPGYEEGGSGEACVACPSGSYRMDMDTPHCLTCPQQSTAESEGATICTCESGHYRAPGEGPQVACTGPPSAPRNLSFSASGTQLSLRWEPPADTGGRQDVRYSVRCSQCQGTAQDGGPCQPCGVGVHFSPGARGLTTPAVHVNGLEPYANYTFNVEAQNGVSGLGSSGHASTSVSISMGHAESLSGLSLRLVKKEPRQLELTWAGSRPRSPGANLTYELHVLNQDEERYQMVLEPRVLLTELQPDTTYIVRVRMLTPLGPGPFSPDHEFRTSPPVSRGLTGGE
Summary of the method: as §1

T1 sequence (P54764 20-547): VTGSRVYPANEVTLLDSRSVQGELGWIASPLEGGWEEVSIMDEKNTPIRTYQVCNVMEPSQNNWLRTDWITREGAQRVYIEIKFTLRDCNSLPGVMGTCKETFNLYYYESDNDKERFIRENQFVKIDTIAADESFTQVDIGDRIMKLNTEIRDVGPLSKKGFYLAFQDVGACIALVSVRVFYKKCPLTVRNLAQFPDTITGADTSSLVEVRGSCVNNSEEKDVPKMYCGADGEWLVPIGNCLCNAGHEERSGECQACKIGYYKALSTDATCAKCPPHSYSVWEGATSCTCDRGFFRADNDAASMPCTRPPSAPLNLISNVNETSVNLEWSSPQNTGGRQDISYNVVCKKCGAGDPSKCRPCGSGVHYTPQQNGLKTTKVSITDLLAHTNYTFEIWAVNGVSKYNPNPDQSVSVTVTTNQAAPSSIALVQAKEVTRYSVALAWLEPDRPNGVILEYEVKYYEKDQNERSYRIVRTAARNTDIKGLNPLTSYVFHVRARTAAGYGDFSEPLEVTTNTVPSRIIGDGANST

Row | Molecule | hEphA4-SEAP-: absorbance at 450 nm, percentage with respect to hEphA4-SEAP-His as 100% (human EphA4) [%] | hEphB1-SEAP-: absorbance at 450 nm, percentage with respect to hEphA4-SEAP-His as 100% (human EphB1) [%] | hEphB2-SEAP-: absorbance at 450 nm, percentage with respect to hEphA4-SEAP-His as 100% (human EphB2) [%] | hEphA1-SEAP-: absorbance at 450 nm, percentage with respect to hEphA4-SEAP-His as 100% (human EphA1) [%]
1 | 77 (antibody, V domains shown, synthetic humanized antibody heavy chain variable region sequence; synthetic humanized antibody light chain variable region sequence) VH: QVQLVQSGSELKKPGASVKVSCKASGYTFTDYSMHWVRQAPGQGLEWMGWINTETGEPTYADDFKGRFVFSLDTSVSTAYLQISSLKAEDTAVYYCARIPLYYYGSRYWYFDVWGQGTTVTVSS VL: DIQMTQSPSSLSASVGDRVTITCRASENIYRNLAWYQQKPGKAPKLLVYAATNLADGVPSRFSGSGSGTDYTLTISSLQPEDFATYYCQHFWGTPWTFGQGTKVEIK | 100 | 4.6 | 4.5 | 4.5
2 | 78 (antibody, V domains shown, synthetic humanized antibody heavy chain variable region sequence; synthetic humanized antibody light chain variable region sequence) VH: QVQLVQSGSELKKPGASVKVSCKASGYTFTDYSMHWVRQAPGQGLKWMGWINTETGEPTYADDFKGRFVFSLDTSVSTAYLQISSLKAEDTAVYYCARIPLYYYGSRYWYFDVWGQGTTVTVSS VL: DIQMTQSPSSLSASVGDRVTITCRASENIYRNLAWYQQKPGKAPKLLVYAATNLADGVPSRFSGSGSGTDYTLTISSLQPEDFATYYCQHFWGTPWTFGQGTKVEIK | 100 | 5.0 | 5.1 | 6.6
3 | 136 (antibody, V domains shown, synthetic humanized antibody heavy chain variable region sequence; synthetic humanized antibody light chain variable region sequence) VH: QVQLVQSGSELKKPGASVKVSCKASGYTFTDYSMHWVRQAPGQGLKWMGWINTETGEPTYADDFKGRFVFSLDTSVSTAYLQISSLKAEDTAVYYCARIPLYYYGSRYWYFDVWGQGTTVTVSS VL: EIVMTQSPATLSVSPGERATLSCRASENIYRNLAWYQQKPGQSPRLLIYAATNLADGIPARFSGSGSGTEYTLTISSLQSEDFAVYYCQHFWGTPWTFGQGTKVEIK | 100 | 5.2 | 5.3 | 5.3
4 | 156 (antibody, V domains shown, synthetic humanized antibody heavy chain variable region sequence; synthetic humanized antibody light chain variable region sequence) VH: QIQLVQSGSELKKPGASVKVSCKASGYTFTDYSMHWVRQAPGQGLKWMGWINTETGEPTYAQGFTGRFVFSLDTSVSTAYLQISSLKAEDTAVYYCARIPLYYYGSRYWYFDVWGQGTTVTVSS VL: DIQMTQSPSSLSASVGDRVTITCRASENIYRNLAWYQQKPGKAPQLLLYAATNLADGVPSRFSGSGSGTDYTLTISSLQPEDFATYYCQHFWGTPWTFGQGTKVEIK | 100 | 5.4 | 5.5 | 5.7
